Measurements from patent US20240190950A1, “METHOD OF TREATING DISEASES USING GREMLIN1 ANTAGONISTS” (SHANGHAI JIAO TONG UNIVERSITY, priority 2021, published 2024).

B1: GREM1: gremlin1 protein, secreted BMP antagonist of the DAN family, added exogenously or immobilized (protein)
chain: KKKGSQGAIPPPDKAQHNDSEQTQSPQQPGSRNRGRGQGRGTAMPGEEVLESSQEALHVTERKYLKRDWCKTQPLKQTIHEEGCNSRTIINRFCYGQCNSFYIPRHIRKEEGSFQSCSFCKPKKFTTMMVTLNCPELQPPTKKKRVTRVKQCRCISIDLD
B2: BMP4: BMP ligand added to cells (protein, UniProt P12644 293-408, looked up)
Bone morphogenetic protein 4: SPKHHSQRARKKNKNCRRHSLYVDFSDVGWNDWIVAPPGYQAFYCHGDCPFPLADHLNSTNHAIVQTLVNSVNSSIPKACCVPTELSAISMLYLDEYDKVVLKNYQEMVVEGCGCR

Key:
LNCaP-PSA cells = experiment: LNCaP-PSA reporter cell assay (PSA-low population, flow cytometry); type: cell-based, human; details: dose dependent; day 7
Source text: In order to assess the role of gremlin1 in modulating tumor prostate cell growth, we tested the antibodies provided herein in an assay involving prostate cancer cell LNCaP. This cell line was transfected with a PSA promoter driven GFP expression lentivirus plasmid. PSA is known as a differentiated marker of prostate cell and prostate cancer cells with low level of PSA represent poorly differentiated or undifferentiated prostate cancer cells. These cells usually have stem cell like property and have more aggressive growth property. The LNCaP reporter cell assay is briefly described below.
LNCaP-PSA cells were plated in 24-well plates at 10000/well in RPMI 1640/10% FBS (GIBCO), 1% P/S (complete media) and incubated at 37° ° C. and 5% CO2 overnight. The next day, remove media, 1 ug/ml human gremlin (ACRO) or human gremlin with serially diluted antibodies were added to the cells. Change medium every three days. On day 7, remove media from the wells, wash with PBS twice, run flow cytometer (Bechman) using FITC channel.

PC3 cells = experiment: Sphere formation, proliferation and apoptosis of PC3 cells; type: cell-based, human; details: 100 ng/ml GREM1 protein in culture medium
Source text: Metastatic prostate cancer is a devastating disease and most cancers progress upon serial treatments with either androgen receptor antagonist or chemotherapy. One of the key cell types resistant to these treatments are cells with stem cells like property which has the capability of forming tumor spheres in suspension culture. To explore the role of GREM1 in the progression of CRPC, we utilized AR independent CRPC cell line PC3, as well as the AR dependent PCa cell line LNCaP and LAPC4. We generated cell sublines with loss or gain of GREM1 expression (FIGS. 3A, 4A and 5A).
14E3 was tested to target GREM1 in human PCa. The affinity and specificity of this antibody to hGREM1 was verified by ELISA (FIG. 12A). […] This antibody potentiated the anti-tumor effect of Enzalutamide in AR dependent LNCaP cells (FIG. 12B, 12C, 10K, 10L).

FGFR1 = FGFR1 (Homo sapiens, UniProt P11362); experiment: ELISA binding of DAN family proteins to FGFR1
Chain of FGFR1 (P11362 3-822 limits assumed): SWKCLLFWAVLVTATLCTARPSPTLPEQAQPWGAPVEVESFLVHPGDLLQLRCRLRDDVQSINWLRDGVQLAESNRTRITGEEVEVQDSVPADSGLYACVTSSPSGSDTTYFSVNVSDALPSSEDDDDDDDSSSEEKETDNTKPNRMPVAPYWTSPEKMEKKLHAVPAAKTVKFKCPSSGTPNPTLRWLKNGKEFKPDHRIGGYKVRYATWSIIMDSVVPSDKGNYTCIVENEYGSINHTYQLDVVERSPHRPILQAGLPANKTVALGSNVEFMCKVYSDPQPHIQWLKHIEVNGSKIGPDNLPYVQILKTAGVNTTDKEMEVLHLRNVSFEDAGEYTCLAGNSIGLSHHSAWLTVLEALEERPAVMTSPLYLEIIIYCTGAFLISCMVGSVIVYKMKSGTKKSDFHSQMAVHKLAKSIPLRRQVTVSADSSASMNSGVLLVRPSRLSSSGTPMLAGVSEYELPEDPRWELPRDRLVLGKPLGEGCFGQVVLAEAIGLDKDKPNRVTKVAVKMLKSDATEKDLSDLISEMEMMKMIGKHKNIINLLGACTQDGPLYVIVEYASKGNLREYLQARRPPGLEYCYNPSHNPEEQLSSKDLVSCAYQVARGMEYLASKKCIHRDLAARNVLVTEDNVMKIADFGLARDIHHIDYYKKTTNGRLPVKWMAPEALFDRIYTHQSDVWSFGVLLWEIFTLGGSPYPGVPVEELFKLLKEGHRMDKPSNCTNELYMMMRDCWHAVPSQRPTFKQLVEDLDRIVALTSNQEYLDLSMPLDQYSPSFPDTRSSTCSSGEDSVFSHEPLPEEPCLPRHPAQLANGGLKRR

[1] = tested on: FGFR1/MEK/ERK signaling pathway; experiment: FGFR1/MEK/ERK phosphorylation in PCa cell lines (immunoblotting); type: cell-based, human
Procedure: In order to test whether Gremlin1 promoted the FGFR-MAPK signaling, we first performed analysis of the expression levels of the four FGFRs in CRPC patients. […] We treated LNCaP and PC3 with GREM1 in different concentrations (1 ng/ml, 10 ng/ml, 100 ng/ml) and examined phosphorylation levels of FGFR1, MEK and ERK.
(§1) MAPK signaling can be activated through many membrane receptors besides FGFR. To test whether the activation of MAPK pathway by GREM1 was via FGFR, we constructed a FGFR1 knockout LNCaP subline by the CRISPR/Cas9 method. […] To further test whether the tumor promoting effect of GREM1 was through FGFR, we utilized small molecule inhibitors of FGFR or EGFR.
14E3 was tested to target GREM1 in human PCa.

PC-3 cells = experiment: Scratch migration assay of PC-3 cells; type: cell-based, human; details: 1 μg/ml Gremlin, 3 days
Procedure: PC-3 cells at log-growth phase were harvested and re-suspended in cell culture medium (DMEM medium supplied with 10% FBS). Cells were non-treated or treated with 1 μg/ml Gremlin or 10 μg/ml 14E3 or 10 μg/ml control mIgG2a for 3 days. Then cells were planted at 10^5 cells/well in 6-well cell culture plate. After cells reached 100% coverage of the bottom of wells, the medium was changed to serum free medium. Each well was made with one scratch using 200 μl-tip. The migration rate of cells were analyzed by calculating the area of cells growing on the scratch using Image J software.

LNCaP cells = experiment: GREM1-promoted PCa cell proliferation and sphere formation with FGFR1/MEK inhibitors or BMP4; type: cell-based, human
Source text: as §1

Row | Molecule | percentage of the PSA-low LNCaP population (LNCaP-PSA cells) | cell proliferation (PC3 cells) | sphere formation (PC3 cells) | binding to FGFR1 (FGFR1) | time MAPK activation was maintained at a high level ([1]; Gremlin1 100 ng/ml, PC3 and LNCaP cells) | p-FGFR1, p-MEK1/2 and p-ERK1/2 levels ([1]; LNCaP and PC3, 1 ng/ml, 10 ng/ml, 100 ng/ml, dose dependent) | cell migration of prostate cancer cells (PC-3 cells) | proliferation promoting role of GREM1 (LNCaP cells) | sphere-formation promoting role of GREM1 (LNCaP cells) | phosphorylation levels of FGFR1, MEK1/2 and ERK1/2 following GREM1 stimulation on addition of BMP4 ([1]; BMP4 20 ng/ml, PC3 and LNCaP-resistance cells)
1 | B1 | increased | significant elevation | significant elevation | binds | up to 1 hour | increase | accelerated | – | – | –
2 | B2 | – | – | – | – | – | – | – | not affected | not affected | did not alter
